Where a chain is given by its changes, count along the chain named.
T1: human PTH receptor (Mus musculus, UniProt P41593)
T1 construct: mouse cranial bone-derived osteoblast-like cell strain MC3T3-EI cultivated on a 96-well multiplate; endogenous in cells; host or cells: MC3T3-E1 (mouse cranial bone-derived osteoblast-like cells)
T1 sequence (P41593 27-591): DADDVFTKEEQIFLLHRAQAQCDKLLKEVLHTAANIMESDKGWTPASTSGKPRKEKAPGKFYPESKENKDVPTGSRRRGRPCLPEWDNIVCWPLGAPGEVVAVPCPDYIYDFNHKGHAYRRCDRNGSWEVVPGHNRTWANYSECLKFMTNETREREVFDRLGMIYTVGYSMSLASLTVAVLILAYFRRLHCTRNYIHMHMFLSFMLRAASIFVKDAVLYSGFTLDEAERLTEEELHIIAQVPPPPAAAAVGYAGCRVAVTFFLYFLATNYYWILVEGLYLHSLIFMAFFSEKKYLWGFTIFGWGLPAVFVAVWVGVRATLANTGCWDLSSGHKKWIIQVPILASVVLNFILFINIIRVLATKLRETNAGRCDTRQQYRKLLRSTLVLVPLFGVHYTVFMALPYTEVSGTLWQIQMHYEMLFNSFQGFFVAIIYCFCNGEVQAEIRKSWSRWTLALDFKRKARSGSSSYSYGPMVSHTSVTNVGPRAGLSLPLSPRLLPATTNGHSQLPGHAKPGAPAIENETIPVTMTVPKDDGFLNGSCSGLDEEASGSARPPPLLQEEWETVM

B1: [Leu^8 ] human PTH (protein)
chain: SVSEIQLLHNLGKHLNSMERVEWLRKKLQDVHNFVALGAPLAPRDAGSQRPRKKEDNVLVESHEKSLGEADKADVNVLTKAKSQ
B2: [Leu^8,18 ] human PTH: human PTH (1-84) mutein in which methionine residues at the 8- and 18-positions were substituted by leucine (protein)
chain: B1 chain with M18L
B3: [Cys^35 ] human PTH: human PTH (1-84) mutein in which valine at the 35-position was substituted by cysteine (protein)
chain: B1 chain with L8M, V35C
B4: [Leu^18 ] human PTH: human PTH (1-84) mutein in which methionine at the 18-position was substituted by leucine (protein)
chain: B1 chain with L8M, M18L

The molecules below were run against human PTH receptor (assay: not given). Settings: not given.
With [Cys35] human PTH (1-84) (ligand) the cAMP production in MC3T3-EI cells; specific activity on the natural type human PTH (relative to natural type human PTH) was 0.6. [Leu8,18] human PTH (1-84) (ligand) was tested, and the cAMP production in MC3T3-EI cells; specific activity on the natural type human PTH (relative to natural type human PTH) was 0.3. [Leu8] human PTH (1-84) (ligand) gave a cAMP production in MC3T3-EI cells; specific activity on the natural type human PTH (relative to natural type human PTH) of 1. Work on [Leu18] human PTH (1-84) (ligand) yielded a cAMP production in MC3T3-EI cells; specific activity on the natural type human PTH (relative to natural type human PTH) of 0.2. Molecule natural type human PTH (1-84) (ligand) has a cAMP production in MC3T3-EI cells; specific activity on the natural type human PTH (relative to natural type human PTH) of 1.

The molecules below were run against T1, human PTH receptor (assay: cAMP production in osteoblast-like MC3T3-EI cells (modified method of Shigeno et al.)). Settings: specific activity of the muteins on the natural type human PTH (=1.0), 0.01-100 nM analogue, room temperature, 30 minutes.
Assay type: cell-based
Protocol: The biological activity of human PTH muteins obtained in Examples 2 to 6 and natural type human PTH were evaluated by a modification of the method reported by Shigeno et al. [The Journal of Biological Chemistry 263. 18369-18377 (1988)]. A culture solution (Hank's solution containing 20 mM N-2-hydroxyethylpiperazine-N'-2-ethanesulfonic acid (HEPES), 0.1% bovine serum albumin (BSA) and 0.5 mM isobutylmethylxanthine) containing 0.01, 0.1, 1, 10 or 100 nM analogue was added in an amount of 100 μl to mouse cranial bone-derived osteoblast-like cell strain MC3T3-EI cultivated on a 96-well multiplate (Nunclon, Nunc), followed by reaction at room temperature for 30 minutes. After addition of 100 μl of 0.2N hydrochloric acid, the mixture was immersed in boiling water for 2.5 minutes, and cyclic adenosine monophosphate (cAMP) produced by a human PTH receptor was extracted from the cells. The total cAMP in the culture solution and the cells was assayed using a commercial radioimmunoassay kit (cyclic AMP [^125 I] kit "Du Pont-Daiichil", Daiichi Kagaku Yakuhin). An increase in cAMP production depending on the concentration of the human PTH mutein added was always observed. The specific activity of the muteins on the natural type human PTH is as follows: […]
“Human PTH: natural type parathyroid hormone, polypeptide hormone consisting of 84 amino acids [reference compound]” was tested, and the “Specific Activity” value was 1.0. With B1 the “Specific Activity” value was 1.0. B2 was tested, and the “Specific Activity” value was 0.3. With B3 the “Specific Activity” value was 0.6. B4 was tested, and the “Specific Activity” value was 0.2.
